Paper PMC3045386, “Insights into the Function of the CRM1 Cofactor RanBP3 from the Structure of Its Ran-Binding Domain” (PLoS ONE, 2011)
Blank lines part the entries; values can stand above or below the binder they belong to.

Legend:
RanQ69L:GTP [1] = biological target: T1, RanQ69L:GTP (human, UniProt P62826 1-216, Q69L); assay: ITC; 800 µM RanBP3 RBD (residues 310–454) titrated into 70 µM RanQ69L:GTP; 25°C; 300 mM NaCl, 5 mM MgCl2, 10 mM TRIS pH 7.4; single-site binding model; Kd,obs; conditions: both partners purified
RanQ69L:GTP [2] = biological target: T1, RanQ69L:GTP; assay: ITC; 530 µM RanQ69L:GTP titrated into 48 µM full-length RanBP3; 25°C; 300 mM NaCl, 5 mM MgCl2, 10 mM TRIS pH 7.4; single-site binding model; Kd,obs; conditions: both partners purified

- Kd (RanQ69L:GTP [1]): 14 ± 0.3 µM
- stoichiometry N (RanQ69L:GTP [1]): 0.93 ± 0.01
B1: RanBP3 RBD (residues 310–454) (domain or fragment)
chain: KATARKCLLEKVEVITGEEAESNVLQMQCKLFVFDKTSQSWVERGRGLLRLNDMASTDDGTLQSRLVMRTQGSLRLILNTKLWAQMQIDKASEKSIRITAMDTEDQGVKVFLISASSKDTGQLYAALHHRILALRSRVEQEQEAK

- Kd (RanQ69L:GTP [2]): 15 ± 3 µM
B2: Human full-length RanBP3 (residues 1–499; isoform B) (natural protein)
chain: MADLANEEKPAIAPPVFVFQKDKGQKRSAGGSSPEGGEDSDREDGNYCPPVKRERTSSLTQFPPSQSEERSSGFRLKPPTLIHGQAPSAGLPSQKPKEQQRSVLRPAVLQAPQPKALSQTVPSSGTNGVSLPADCTGAVPAASPDTAAWRSPSEAADEVCALEEKEPQKNESSNASEEEACEKKDPATQQAFVFGQNLRDRVKLINESVDEADMENAGHPSADTPTATNYFLQYISSSLENSTNSADASSNKFVFGQNMSERVLSPPKLNEVSSDANRENAAAESGSESSSQEATPEKESLAESAAAYTKATARKCLLEKVEVITGEEAESNVLQMQCKLFVFDKTSQSWVERGRGLLRLNDMASTDDGTLQSRLVMRTQGSLRLILNTKLWAQMQIDKASEKSIRITAMDTEDQGVKVFLISASSKDTGQLYAALHHRILALRSRVEQEQEAKMPAPEPGAAPSNEEDDSDDDDVLAPSGATAAGAGDEGDGQTTGST
